Data published in article PMC2137744.

Target: H chains of human 7S γ-globulin reduced without alkylation (human)
Assay: co-sedimentation

A yield of doubly labeled 7S material of 30 per cent was found for “L chains of human 7S γ-globulin reduced without alkylation (natural protein)” in this work.
